Measurements published in the RNAGym collection of RNA variant scans (doi:10.1093/molbev/msab373).

B1: Azoarcus group I ribozyme (parent)
chain: GUGCCUUGCGCCGGGAAACCACGCAAGGGAUGGUGUCAAAUUCGGCGAAACCUAAGCGCCCGCCCGGGCGUAUGGCAACGCCGAGCCAAGCUUCGGCGCCUGCGCCGAUGAAGGUGUAGAGACUAGACGGCACCCACCUAAGGCAAACGCUAUGGUGAAGGCAUAGUCCAGGGAGUGGCGAAAGUCACACAAACCGG

Variants of: B1
Experiment: reverse-splicing fitness (ratio to wild type); higher = more active; in vitro selection; Mg2+ level not given
How it was run: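 An in vitro group I ribozyme library with randomized positions was T7-transcribed and gel-purified. In triplicate, 10 pmol RNA in EPPS pH 7.5 was reacted with 50 pmoles of a 30-nt RNA substrate for 1 h at 37 °C across several added MgCl2 levels (1–48 mM), then stopped with EDTA. Products were reverse transcribed from a substrate-complementary primer, PCR-amplified and sequenced (HiSeq 4000). Fitness is a variant's read proportion after selection over that before, normalised to wild type.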

Row | Variant | reverse-splicing fitness
1 | C82U A111U A120C C150U C169A | 0.00987
2 | C82U A111U A120C C150U C169G | 0.00829
3 | C82U A111G U176C | 0.274
4 | C82U A111G U176A | 0.193
5 | C82U A111G U176G | 0.0517
6 | C82U A111U A120C A145C C150U C169A U176G | 0.00569
7 | C82U A111U A120C A145C C150U C169A U176A | 0.0088
8 | C82U A111U A120C A145C C150U C169A U176C | 0.00517
9 | C82U A111U | 0.327
10 | C82U A111G C150U C169A U176G | 0.00543
11 | C82U A111G C150U C169A U176A | 0.0145
12 | C82U A111G C150U C169A U176C | 0.0135
13 | C82U A111U A120C C150G C169U U176G | 0.00538
14 | C82U A111U A120C C150G C169U U176C | 0.0149
15 | C82U A111U A120C C150G C169U U176A | 0.0091
16 | C82U A111U A120C A145C C169G U176G | 0.00439
17 | C82U A111U A120C A145C C169G U176A | 0.0202
18 | C82U A111U A120C A145C C169G U176C | 0.0105
19 | C82U A111G A145U C169G U176A | 0.00999
20 | C82U A111G A145U C169G U176G | 0.00474
21 | C82U A111G A145U C169G U176C | 0.00876

Row | Variant | reverse-splicing fitness
22 | C82U A111U A120C A145G C150U C169U U176A | 0.0159
23 | C82U A111U A120C A145G C150U C169U U176C | 0.0155
24 | C82U A111U A120C A145G C150U C169U U176G | 0.00474
25 | C82U A111U A120C A145C C150A C169A | 0.00749
26 | C82U A111U A120C A145C C150A C169U | 0.0102
27 | C82U A111U A120C A145C C150A C169G | 0.00632
28 | C82U A111U A120C C150A C169G U176C | 0.0181
29 | C82U A111U A120C C150A C169G U176G | 0.00669
30 | C82U A111U A120C C150A C169G U176A | 0.0178
31 | C82U A111U A120C A145G C150U U176A | 0.0116
32 | C82U A111U A120C A145G C150U U176C | 0.0214
33 | C82U A111U A120C A145G C150U U176G | 0.00597
34 | C82U A111G C150U C169A | 0.00959
35 | C82U A111G C150U C169U | 0.0108
36 | C82U A111G C150U C169G | 0.0092
37 | C82U A111U A120C A145U C169G U176C | 0.00955
38 | C82U A111U A120C A145U C169G U176G | 0.00433
39 | C82U A111U A120C A145U C169G U176A | 0.00882
40 | C82U A111U A120C A145G U176C | 0.0219
41 | C82U A111U A120C A145G U176A | 0.0152
42 | C82U A111U A120C A145G U176G | 0.00517

Row | Variant | reverse-splicing fitness
43 | C82U A111U A120C A145G C150A U176G | 0.00675
44 | C82U A111U A120C A145G C150A U176A | 0.0105
45 | C82U A111U A120C A145G C150A U176C | 0.0207
46 | C82U A111U A120C C169A U176C | 0.0138
47 | C82U A111U A120C C169A U176G | 0.00513
48 | C82U A111U A120C C169A U176A | 0.0152
49 | C82U A111G C150A C169U | 0.00979
50 | C82U A111G C150A C169A | 0.00969
51 | C82U A111G C150A C169G | 0.00918
52 | C82U A111U A120C A145G C150G C169U U176G | 0.00719
53 | C82U A111U A120C A145G C150G C169U U176C | 0.0128
54 | C82U A111U A120C A145G C150G C169U U176A | 0.0113
55 | C82U A111U A120C A145C C150U C169G U176G | 0.00538
56 | C82U A111U A120C A145C C150U C169G U176C | 0.00936
57 | C82U A111U A120C A145C C150U C169G U176A | 0.0175
58 | C82U A111U A120C C150A C169U U176G | 0.00688
59 | C82U A111U A120C C150A C169U U176C | 0.0203
60 | C82U A111U A120C C150A C169U U176A | 0.0229
61 | C82U A111G C150G U176A | 0.00888
62 | C82U A111G C150G U176C | 0.0178
63 | C82U A111G C150G U176G | 0.00391

Row | Variant | reverse-splicing fitness
64 | C82U A111U A120C A145U C150A C169U U176G | 0.00498
65 | C82U A111U A120C A145U C150A C169U U176A | 0.0145
66 | C82U A111U A120C A145U C150A C169U U176C | 0.0156
67 | C82U A111U A120C C150G C169A U176A | 0.0105
68 | C82U A111U A120C C150G C169A U176C | 0.0101
69 | C82U A111U A120C C150G C169A U176G | 0.00603
70 | C82U A111U A120C A145G C169U U176A | 0.0163
71 | C82U A111U A120C A145G C169U U176C | 0.0162
72 | C82U A111U A120C A145G C169U U176G | 0.00475
73 | C82U A111U A120C A145U C150A C169A | 0.00772
74 | C82U A111U A120C A145U C150A C169G | 0.00687
75 | C82U A111U A120C A145U C150A C169U | 0.00908
76 | C82U A111U A120C A145G C150A C169G U176C | 0.0229
77 | C82U A111U A120C A145G C150A C169G U176A | 0.0169
78 | C82U A111U A120C A145G C150A C169G U176G | 0.00516
79 | C82U A111U A120C C150A U176A | 0.0126
80 | C82U A111U A120C C150A U176C | 0.0189
81 | C82U A111U A120C C150A U176G | 0.0056
82 | C82U A111U A120C A145U C150G C169A U176A | 0.00915
83 | C82U A111U A120C A145U C150G C169A U176G | 0.0051
